Starred links: 1 amine or outer side, 2 acyl side, 3 side chain; linkers in the order of their positions; H or OH if unused. Non-standard residues stand in square brackets, D forms with d. Primed or numbered codes have the meaning given here. No end group written: not given here. rCha = cyclohexylalanine with ψ(CH2NH) reduced amide bond, C1CCC(C[C@@H](C[*:2])N[*:1])CC1; rhArg = homoarginine with ψ(CH2NH) reduced amide bond, N=C(N)NCCCC[C@@H](C[*:2])N[*:1]; rHis = histidine with ψ(CH2NH) reduced amide bond, c1nc(C[C@@H](C[*:2])N[*:1])c[nH]1; rLys = lysine with ψ(CH2NH) reduced amide bond, C(CC[C@@H](C[*:2])N[*:1])CN[*:3]; Oic = O=C(O)[C@@H]1C[C@@H]2CCCC[C@@H]2N1; Phe(4-Cl) = N[C@@H](Cc1ccc(Cl)cc1)C(=O)O; d1Nal = N[C@H](Cc1cccc2ccccc12)C(=O)O; d2Nal = N[C@H](Cc1ccc2ccccc2c1)C(=O)O; NMeR = CN[C@@H](CCCNC(=N)N)C(=O)O; hArg = N=C(N)NCCCC[C@H](N)C(=O)O; Cha = N[C@@H](CC1CCCCC1)C(=O)O; Gly(N-CH2CH2OH) = O=C(O)CNCCO; αMeL = CC(C)C[C@](C)(N)C(=O)O; αMeOrn = C[C@](N)(CCCN)C(=O)O; αMeP = C[C@@]1(C(=O)O)CCCN1; β3hP = O=C(O)C[C@@H]1CCCN1; αMeS = C[C@](N)(CO)C(=O)O; Nle = CCCC[C@H](N)C(=O)O; Orn = NCCC[C@H](N)C(=O)O; Pip′ = not defined here; Nlys = NCCCCNCC(=O)O; BLeu = β-leucine; βAla = NCCC(=O)O; BLys = β-lysine
Experiments:
rat APJ receptor = molecular target: T1, rat APJ receptor (rat, UniProt Q9JHG3 1-377); assay: cell-based or functional assay
T1 sequence (looked up): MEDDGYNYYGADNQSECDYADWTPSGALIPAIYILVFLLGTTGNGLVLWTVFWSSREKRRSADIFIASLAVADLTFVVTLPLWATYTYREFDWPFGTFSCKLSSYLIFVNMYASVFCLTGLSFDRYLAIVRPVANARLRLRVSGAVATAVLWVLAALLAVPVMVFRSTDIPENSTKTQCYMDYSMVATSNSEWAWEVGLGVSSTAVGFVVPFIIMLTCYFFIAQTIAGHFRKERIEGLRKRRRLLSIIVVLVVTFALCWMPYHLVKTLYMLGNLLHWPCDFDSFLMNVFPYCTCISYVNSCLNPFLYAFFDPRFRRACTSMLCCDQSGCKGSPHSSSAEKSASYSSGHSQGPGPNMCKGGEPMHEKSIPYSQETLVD

human APJ receptor = molecular target: T2, human APJ receptor (human, UniProt P35414 1-380); assay: cell-based or functional assay
T2 sequence (looked up): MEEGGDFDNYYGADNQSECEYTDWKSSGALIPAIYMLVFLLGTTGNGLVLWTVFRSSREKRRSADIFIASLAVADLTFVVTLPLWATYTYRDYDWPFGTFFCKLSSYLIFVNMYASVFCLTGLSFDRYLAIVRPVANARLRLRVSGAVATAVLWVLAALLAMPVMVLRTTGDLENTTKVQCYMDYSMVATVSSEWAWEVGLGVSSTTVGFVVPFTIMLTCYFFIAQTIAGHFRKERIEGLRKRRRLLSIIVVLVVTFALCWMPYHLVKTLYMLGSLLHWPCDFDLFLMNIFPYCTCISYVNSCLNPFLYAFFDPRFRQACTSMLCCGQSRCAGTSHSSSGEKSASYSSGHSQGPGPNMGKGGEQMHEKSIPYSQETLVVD

Binder | EC50 Rat APJ Receptor (rat APJ receptor) [nM] | EC50 Human APJ Receptor (human APJ receptor) [nM]
[Orn]F[hArg][hArg]Q[hArg]P[hArg][Cha]SH[BLys]G[Oic][Nle]P[Phe(4-Cl)] [apelin polypeptide SEQ ID NO: 702] | 1.49 | 0.33
Ac-[hArg]Q[dR]P[NMeR][Cha]SHKG[Oic][Nle][d1Nal]-OH (SMILES CCCC[C@H](NC(=O)[C@@H]1C[C@@H]2CCCC[C@@H]2N1C(=O)CNC(=O)[C@H](CCCCN)NC(=O)[C@H](Cc1c[nH]cn1)NC(=O)[C@H](CO)NC(=O)[C@H](CC1CCCCC1)NC(=O)[C@H](CCCNC(=N)N)N(C)C(=O)[C@@H]1CCCN1C(=O)[C@@H](CCCNC(=N)N)NC(=O)[C@H](CCC(N)=O)NC(=O)[C@H](CCCCNC(=N)N)NC(C)=O)C(=O)N[C@H](Cc1cccc2ccccc12)C(=O)O) [apelin polypeptide SEQ ID NO: 25] | 53.7 | 1.74
[Orn]F[hArg][hArg]Q[hArg]P[hArg][Cha]SH[βAla]G[Oic][Nle]P[Phe(4-Cl)] [apelin polypeptide SEQ ID NO: 703] | 2.67 | 1.26
[Orn]F[hArg][hArg]Q[hArg]P[hArg][Cha]SHK[βAla][Oic][Nle]P[Phe(4-Cl)] [apelin polypeptide SEQ ID NO: 704] | 2.86 | 0.963
[Orn]F[hArg][hArg]Q[hArg]P[hArg][Cha]SHKG[βAla][Nle]P[Phe(4-Cl)] [apelin polypeptide SEQ ID NO: 705] | 11.1 | 3.48
[Orn]F[hArg][hArg]Q[hArg]P[hArg][Cha]SHKG[β3hP][Nle]P[Phe(4-Cl)] [apelin polypeptide SEQ ID NO: 706] | 4.39 | 1.99
[Orn]F[hArg][hArg]Q[hArg]P[hArg][Cha]SHKG[Pip′][Nle]P[Phe(4-Cl)] [apelin polypeptide SEQ ID NO: 707] | 0.471 | 0.294
[Orn]F[hArg][hArg]Q[hArg]P[hArg][Cha]SHKG[Oic][Nle][β3hP][Phe(4-Cl)] [apelin polypeptide SEQ ID NO: 709] | 0.862 | 0.555
[Orn]F[hArg][hArg]Q[hArg]P[hArg][Cha]SHKG[Oic][Nle][βAla][Phe(4-Cl)] [apelin polypeptide SEQ ID NO: 710] | 1.79 | 0.785
[Orn]F[hArg][hArg]Q[hArg]P[hArg][Cha]SHKG[Oic][Nle][Pip′][Phe(4-Cl)] [apelin polypeptide SEQ ID NO: 711] | 0.351 | 0.229
[Orn]F[hArg][hArg]Q[hArg]P[hArg][Cha]SHKG[Oic][Nle][d1Nal] [apelin polypeptide SEQ ID NO: 712] | 0.821 | 0.654
Ac-[Orn]F[hArg][hArg][BLeu][hArg]P[hArg][Cha]SHKG[Oic][Nle]P[Phe(4-Cl)]-OH [apelin polypeptide SEQ ID NO: 29] | 0.301 | 0.116
[Orn]F[hArg][hArg]Q[hArg]P[hArg][Cha]SHKG[Oic][Nle][d2Nal] [apelin polypeptide SEQ ID NO: 713] | 1.14 | 1.54
[Orn]F[hArg][hArg]Q[hArg]P[hArg][Cha]SHKG[Oic][Nle]P[Phe(4-Cl)] [apelin polypeptide SEQ ID NO: 714] | 0.271 | 0.168
Ac-[Orn]F[hArg][hArg]Q[hArg]P[hArg][BLeu]SHKG[Oic][Nle]P[Phe(4-Cl)]-OH [apelin polypeptide SEQ ID NO: 30] | 0.456 | 0.166
Ac-[Orn]F[hArg][hArg]Q[hArg]P[hArg][Cha][Gly(N-CH2CH2OH)]HKG[Oic][Nle]P[Phe(4-Cl)]-OH (SMILES CCCC[C@H](NC(=O)[C@@H]1C[C@@H]2CCCC[C@@H]2N1C(=O)CNC(=O)[C@H](CCCCN)NC(=O)[C@H](Cc1c[nH]cn1)NC(=O)CN(CCO)C(=O)[C@H](CC1CCCCC1)NC(=O)[C@H](CCCCNC(=N)N)NC(=O)[C@@H]1CCCN1C(=O)[C@H](CCCCNC(=N)N)NC(=O)[C@H](CCC(N)=O)NC(=O)[C@H](CCCCNC(=N)N)NC(=O)[C@H](CCCCNC(=N)N)NC(=O)[C@H](Cc1ccccc1)NC(=O)[C@H](CCCN)NC(C)=O)C(=O)N1CCC[C@H]1C(=O)N[C@@H](Cc1ccc(Cl)cc1)C(=O)O) [apelin polypeptide SEQ ID NO: 31] | 0.703 | 0.116
Ac-[Orn]F[hArg][hArg]Q[hArg]P[hArg][Cha]SH[Nlys]G[Oic][Nle]P[Phe(4-Cl)]-OH [apelin polypeptide SEQ ID NO: 32] | 1.51 | 0.25
Ac-[Orn]F[hArg][hArg]Q[hArg][αMeP][hArg][Cha]SHKG[Oic][Nle]P[Phe(4-Cl)]-OH [apelin polypeptide SEQ ID NO: 33] | 0.318 | 0.0985
Ac-[Orn]F[hArg][hArg]Q[hArg]P[hArg][αMeL]SHKG[Oic][Nle]P[Phe(4-Cl)]-OH (SMILES CCCC[C@H](NC(=O)[C@@H]1C[C@@H]2CCCC[C@@H]2N1C(=O)CNC(=O)[C@H](CCCCN)NC(=O)[C@H](Cc1c[nH]cn1)NC(=O)[C@H](CO)NC(=O)[C@](C)(CC(C)C)NC(=O)[C@H](CCCCNC(=N)N)NC(=O)[C@@H]1CCCN1C(=O)[C@H](CCCCNC(=N)N)NC(=O)[C@H](CCC(N)=O)NC(=O)[C@H](CCCCNC(=N)N)NC(=O)[C@H](CCCCNC(=N)N)NC(=O)[C@H](Cc1ccccc1)NC(=O)[C@H](CCCN)NC(C)=O)C(=O)N1CCC[C@H]1C(=O)N[C@@H](Cc1ccc(Cl)cc1)C(=O)O) [apelin polypeptide SEQ ID NO: 34] | 0.193 | 0.0519
Ac-[Orn]F[hArg][hArg]Q[hArg]P[hArg][Cha][αMeS]HKG[Oic][Nle]P[Phe(4-Cl)]-OH [apelin polypeptide SEQ ID NO: 35] | 0.185 | 0.0861
Ac-[Orn]F[hArg][hArg]Q[hArg]P[hArg][Cha]SH[αMeOrn]G[Oic][Nle]P[Phe(4-Cl)]-OH [apelin polypeptide SEQ ID NO: 36] | 1.94 | 0.355
Ac-[Orn]F[hArg][hArg]Q[hArg]P[hArg][Cha]SHKG[Oic][Nle][αMeP][Phe(4-Cl)]-OH [apelin polypeptide SEQ ID NO: 37] | 0.136 | 0.0672
Ac-[Orn]F[hArg][hArg]Q[rhArg]P[hArg][Cha]SHKG[Oic][Nle]P[Phe(4-Cl)]-OH (also: reduced amide bond (CH2NH) at residue 6) [apelin polypeptide SEQ ID NO: 38] | 1.3 | 0.0869
Ac-[Orn]F[hArg][hArg]Q[hArg]P[rhArg][Cha]SHKG[Oic][Nle]P[Phe(4-Cl)]-OH (also: reduced amide bond (CH2NH) at residue 8) [apelin polypeptide SEQ ID NO: 39] | 0.323 | 0.253
Ac-[Orn]F[hArg][hArg]Q[hArg]P[hArg][Cha]S[rHis]KG[Oic][Nle]P[Phe(4-Cl)]-OH (also: reduced amide bond (CH2NH) at residue 11) [apelin polypeptide SEQ ID NO: 40] | 1.45 | 0.234
Ac-[Orn]F[hArg][hArg]Q[hArg]P[hArg][Cha]SH[rLys]G[Oic][Nle]P[Phe(4-Cl)]-OH (also: reduced amide bond (CH2NH) at residue 12) [apelin polypeptide SEQ ID NO: 41] | 0.817 | 0.151
Ac-[Orn]F[hArg][hArg]Q[hArg]P[hArg][rCha]SHKG[Oic][Nle]P[Phe(4-Cl)]-OH (also: reduced amide bond (CH2NH) at residue 9) [apelin polypeptide SEQ ID NO: 42] | 0.247 | 0.0449

— patent publication US10941182 (Amgen, dated 2021)
